Reference: publication PMC11014265
Like-named read-outs stand apart in the source and are kept apart here.

Columns and labels:
Assay in all cases: fluorescence anisotropy
HrpA75-758 (no APHB) [1] = target: T1, HrpA75-758 (no APHB) (Escherichia coli, UniProt P43329 75-758)
T1 sequence: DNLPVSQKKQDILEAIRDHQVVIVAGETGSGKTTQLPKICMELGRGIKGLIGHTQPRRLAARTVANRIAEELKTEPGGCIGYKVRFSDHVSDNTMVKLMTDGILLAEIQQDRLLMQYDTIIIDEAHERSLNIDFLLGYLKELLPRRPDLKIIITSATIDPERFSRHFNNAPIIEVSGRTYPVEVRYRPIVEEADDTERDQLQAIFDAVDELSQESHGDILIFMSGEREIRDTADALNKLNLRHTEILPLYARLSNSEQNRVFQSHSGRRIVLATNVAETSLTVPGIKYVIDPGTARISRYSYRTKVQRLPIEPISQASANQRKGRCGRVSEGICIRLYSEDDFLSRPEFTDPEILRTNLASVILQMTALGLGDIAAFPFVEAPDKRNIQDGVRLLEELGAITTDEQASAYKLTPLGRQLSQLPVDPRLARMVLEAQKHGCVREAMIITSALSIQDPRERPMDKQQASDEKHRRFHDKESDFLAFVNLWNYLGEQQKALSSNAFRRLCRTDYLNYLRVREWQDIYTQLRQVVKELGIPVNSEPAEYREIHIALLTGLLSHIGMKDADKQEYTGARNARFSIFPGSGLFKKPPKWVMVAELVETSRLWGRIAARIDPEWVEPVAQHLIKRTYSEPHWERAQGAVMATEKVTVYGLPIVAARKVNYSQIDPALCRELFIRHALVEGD

HrpA75-1300 (no APHB) [2] = target: T2, HrpA75-1300 (no APHB) (Escherichia coli, UniProt P43329 75-1300)
T2 sequence: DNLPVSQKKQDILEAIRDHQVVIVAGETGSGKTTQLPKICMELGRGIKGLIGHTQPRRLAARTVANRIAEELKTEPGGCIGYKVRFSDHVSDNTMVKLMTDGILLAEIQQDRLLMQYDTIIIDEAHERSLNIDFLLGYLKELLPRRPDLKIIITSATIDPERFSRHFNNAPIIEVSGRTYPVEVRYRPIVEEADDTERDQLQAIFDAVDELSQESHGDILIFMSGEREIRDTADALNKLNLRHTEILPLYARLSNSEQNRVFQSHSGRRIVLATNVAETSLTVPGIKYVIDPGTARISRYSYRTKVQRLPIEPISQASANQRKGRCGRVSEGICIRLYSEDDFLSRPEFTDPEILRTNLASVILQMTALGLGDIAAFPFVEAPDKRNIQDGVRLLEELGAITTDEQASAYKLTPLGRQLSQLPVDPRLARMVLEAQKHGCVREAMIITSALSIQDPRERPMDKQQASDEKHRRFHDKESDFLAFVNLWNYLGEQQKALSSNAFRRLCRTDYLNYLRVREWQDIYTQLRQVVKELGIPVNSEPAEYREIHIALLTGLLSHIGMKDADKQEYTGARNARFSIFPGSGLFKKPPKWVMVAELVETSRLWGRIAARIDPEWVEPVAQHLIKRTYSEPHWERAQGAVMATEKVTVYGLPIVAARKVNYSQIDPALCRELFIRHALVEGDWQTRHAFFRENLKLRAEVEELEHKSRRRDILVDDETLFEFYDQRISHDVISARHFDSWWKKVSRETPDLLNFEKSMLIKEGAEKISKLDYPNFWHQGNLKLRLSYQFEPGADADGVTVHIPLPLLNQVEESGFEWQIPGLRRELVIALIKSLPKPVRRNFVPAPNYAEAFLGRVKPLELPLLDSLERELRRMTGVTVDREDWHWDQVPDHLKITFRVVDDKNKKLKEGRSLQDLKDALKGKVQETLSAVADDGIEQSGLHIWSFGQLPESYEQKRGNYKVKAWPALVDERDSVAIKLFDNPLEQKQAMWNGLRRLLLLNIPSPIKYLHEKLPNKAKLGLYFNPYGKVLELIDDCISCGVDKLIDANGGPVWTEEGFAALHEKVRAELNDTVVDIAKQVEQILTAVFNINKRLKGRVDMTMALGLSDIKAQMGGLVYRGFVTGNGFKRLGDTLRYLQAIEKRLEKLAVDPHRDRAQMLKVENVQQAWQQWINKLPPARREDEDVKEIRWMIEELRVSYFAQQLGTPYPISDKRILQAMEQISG

HrpA75-1300 (no APHB) [3] = target: T2, HrpA75-1300 (no APHB); remark: listed apart in the source
HrpA75-1300 (no APHB) [4] = target: T2, HrpA75-1300 (no APHB); remark: listed apart in the source
HrpA1-1300 E49A [5] = target: T3, HrpA1-1300 E49A (Escherichia coli, UniProt P43329 1-1300, E49A)
T3 sequence: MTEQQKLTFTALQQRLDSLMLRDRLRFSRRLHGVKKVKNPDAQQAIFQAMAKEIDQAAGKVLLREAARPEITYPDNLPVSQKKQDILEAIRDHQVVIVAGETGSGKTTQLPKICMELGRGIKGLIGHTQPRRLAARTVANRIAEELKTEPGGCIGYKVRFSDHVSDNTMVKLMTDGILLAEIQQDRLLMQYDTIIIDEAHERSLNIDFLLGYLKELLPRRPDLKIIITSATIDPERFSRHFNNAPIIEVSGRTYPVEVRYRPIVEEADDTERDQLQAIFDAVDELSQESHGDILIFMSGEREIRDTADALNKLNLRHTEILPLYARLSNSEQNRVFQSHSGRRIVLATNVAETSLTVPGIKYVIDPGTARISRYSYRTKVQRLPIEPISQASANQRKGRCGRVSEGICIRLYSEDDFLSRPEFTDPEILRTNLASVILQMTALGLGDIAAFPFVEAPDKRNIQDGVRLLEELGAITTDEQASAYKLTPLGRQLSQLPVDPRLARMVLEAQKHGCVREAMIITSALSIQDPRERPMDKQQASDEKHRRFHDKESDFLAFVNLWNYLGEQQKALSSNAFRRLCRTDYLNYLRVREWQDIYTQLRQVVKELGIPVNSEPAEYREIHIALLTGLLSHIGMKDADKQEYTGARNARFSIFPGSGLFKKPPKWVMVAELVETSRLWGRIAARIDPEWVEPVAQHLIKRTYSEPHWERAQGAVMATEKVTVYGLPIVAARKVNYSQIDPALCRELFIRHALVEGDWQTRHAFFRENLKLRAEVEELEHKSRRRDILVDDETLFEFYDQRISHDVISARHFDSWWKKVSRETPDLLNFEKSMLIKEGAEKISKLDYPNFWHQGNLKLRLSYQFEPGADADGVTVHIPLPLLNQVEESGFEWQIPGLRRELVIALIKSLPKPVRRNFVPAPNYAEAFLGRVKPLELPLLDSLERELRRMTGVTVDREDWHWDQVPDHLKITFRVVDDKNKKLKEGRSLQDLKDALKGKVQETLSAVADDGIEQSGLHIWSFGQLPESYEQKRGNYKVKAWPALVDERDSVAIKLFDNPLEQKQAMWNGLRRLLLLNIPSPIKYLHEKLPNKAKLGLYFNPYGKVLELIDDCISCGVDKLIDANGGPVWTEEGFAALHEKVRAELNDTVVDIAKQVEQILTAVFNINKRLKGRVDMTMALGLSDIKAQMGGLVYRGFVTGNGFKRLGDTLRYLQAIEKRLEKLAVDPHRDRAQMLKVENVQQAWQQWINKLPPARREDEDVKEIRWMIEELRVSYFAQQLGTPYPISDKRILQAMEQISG

HrpA1-1300 (full-length) = target: T4, HrpA1-1300 (full-length) (Escherichia coli, UniProt P43329 1-1300)
T4 sequence: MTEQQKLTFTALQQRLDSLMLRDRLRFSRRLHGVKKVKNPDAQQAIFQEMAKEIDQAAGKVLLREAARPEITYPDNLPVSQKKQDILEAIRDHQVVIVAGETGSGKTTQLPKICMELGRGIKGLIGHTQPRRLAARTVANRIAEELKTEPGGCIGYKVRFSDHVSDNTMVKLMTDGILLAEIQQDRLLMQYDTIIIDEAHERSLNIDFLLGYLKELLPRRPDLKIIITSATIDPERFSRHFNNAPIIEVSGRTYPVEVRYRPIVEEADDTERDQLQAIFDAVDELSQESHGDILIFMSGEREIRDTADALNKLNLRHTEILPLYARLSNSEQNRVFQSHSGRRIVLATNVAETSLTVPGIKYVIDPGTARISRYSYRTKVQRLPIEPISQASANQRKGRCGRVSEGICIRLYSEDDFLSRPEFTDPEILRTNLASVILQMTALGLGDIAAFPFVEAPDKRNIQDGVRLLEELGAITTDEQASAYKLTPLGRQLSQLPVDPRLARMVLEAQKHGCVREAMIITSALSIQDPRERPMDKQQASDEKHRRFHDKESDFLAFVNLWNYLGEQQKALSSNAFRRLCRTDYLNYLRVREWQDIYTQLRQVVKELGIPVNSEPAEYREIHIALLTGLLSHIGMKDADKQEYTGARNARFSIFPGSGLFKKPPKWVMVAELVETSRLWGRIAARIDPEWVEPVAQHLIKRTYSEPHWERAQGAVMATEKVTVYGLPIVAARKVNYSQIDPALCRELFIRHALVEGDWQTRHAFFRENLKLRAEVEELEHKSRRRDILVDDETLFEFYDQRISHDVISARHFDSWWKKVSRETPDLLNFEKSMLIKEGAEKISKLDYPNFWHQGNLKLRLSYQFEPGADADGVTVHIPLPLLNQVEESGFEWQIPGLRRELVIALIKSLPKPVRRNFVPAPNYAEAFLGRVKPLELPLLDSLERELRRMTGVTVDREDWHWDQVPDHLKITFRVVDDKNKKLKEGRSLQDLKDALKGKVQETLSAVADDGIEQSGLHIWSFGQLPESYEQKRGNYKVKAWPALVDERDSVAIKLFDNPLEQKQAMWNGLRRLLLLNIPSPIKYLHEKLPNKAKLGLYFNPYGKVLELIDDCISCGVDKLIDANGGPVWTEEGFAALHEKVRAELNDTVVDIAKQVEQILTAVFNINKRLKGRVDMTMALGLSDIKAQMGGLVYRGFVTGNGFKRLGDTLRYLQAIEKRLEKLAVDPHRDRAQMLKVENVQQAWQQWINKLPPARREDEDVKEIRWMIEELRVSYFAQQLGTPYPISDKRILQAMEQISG

HrpA75-1300 (no APHB) [6] = target: T2, HrpA75-1300 (no APHB); remark: listed apart in the source
HrpA1-1300 E49A [7] = target: T3, HrpA1-1300 E49A; remark: listed apart in the source
HrpA75-1300 (no APHB) [8] = target: T2, HrpA75-1300 (no APHB); remark: listed apart in the source
HrpA75-758 (no APHB) [9] = target: T1, HrpA75-758 (no APHB); remark: listed apart in the source
HrpA75-1300 (no APHB) [10] = target: T2, HrpA75-1300 (no APHB); remark: listed apart in the source

B1: R-G-rich (ssRNA)
RNA: GUGUGUGUGUGU
HrpA75-758 (no APHB) [1]
  binding signal: > 3 fold reduction
HrpA75-1300 (no APHB) [2]
  binding signal: > 9 fold reduction

B2: R-A12 (ssRNA)
RNA: AAAAAAAAAAAA
HrpA75-1300 (no APHB) [3]
  binding signal: > 3 fold reduction
HrpA75-758 (no APHB) [1]
  binding signal: > 3 fold reduction

B3: D-G-rich (ssDNA)
DNA: GTGTGTGTGTGT
HrpA75-1300 (no APHB) [4]
  binding result: no binding
HrpA1-1300 E49A [5]
  binding result: binds

B4: D-T12 (ssDNA)
DNA: TTTTTTTTTTTT
HrpA1-1300 (full-length)
  Kd: 307 nM

B5: D-C12 (ssDNA)
DNA: CCCCCCCCCCCC
HrpA75-1300 (no APHB) [6]
  binding result: no binding
HrpA1-1300 E49A [7]
  binding result: binds

B6: R-C12 (ssRNA)
RNA: CCCCCCCCCCCC
HrpA75-1300 (no APHB) [8]
  binding signal: > 9 fold reduction
HrpA75-758 (no APHB) [9]
  binding signal: > 3 fold reduction

B7: R-U12 (ssRNA)
RNA: UUUUUUUUUUUU
HrpA75-758 (no APHB) [9]
  binding signal: > 3 fold reduction
HrpA75-1300 (no APHB) [10]
  binding signal: > 2 fold reduction
